# Data taken from doi:10.1101/2021.11.23.469668 (bioRxiv, 2021).
# B1: Atlas virus GC ectodomain fragment (polyprotein residues 2330-2772) (domain or fragment)
# chain: CSEVISVTSTEEVCTIQENKETCTFNHATTITLQPLQQQTCLTLNDPEKRPMGMLTVKPDGIKFRCNKKIEFFTRDHQIVSESVHRCHRAGSCHSDECHHVKDTDALPEFSSEANSRPGYTSCSSSCGCITCDGCFFCEPSCLFHRLYAIPTTPTIYSIFYCPSWELEVDAEISLQREDETTTSTIRLLPGRTSTWNNIRFSLIGTIVPQLPILSSAFVTNGRQTSIVKPAYAGQLQSNSVGQLQCPNLEAAKQFECHFSRNLCTCTNALHKVSCTCYDGSVEDHMEALPLPQTSKNFLVFEKDRNIYAKTHVGSALQLHIVAQDLKITTVKHTSHCQVEASDLSGCYSCTSGASLTLSCKSDNGEVLANMKCNEQTHVIRCTESGFINNILLMFDTSEVAADCTAACPGGIVNFTIKGLLAFVNERIISQSYSATDVERNIK
# modifications: N-linked glycan at Asn414 (GC numbering)
# What was measured:
# Assay in all cases: SEC
# [1] = target: Atlas GC fusion loop mutant F136A/F137A (Ancylostoma ceylanicum (endogenous retrovirus Atlas virus))
# [2] = target: Atlas GC GPL binding pocket mutant R86A (Ancylostoma ceylanicum (endogenous retrovirus Atlas virus))
# SEC = target: the molecule itself
molecule,measurement,setting,value
Atlas GC fusion loop mutant F136A/F137A (domain or fragment),stoichiometry N,[1],3
Atlas GC GPL binding pocket mutant R86A (domain or fragment),stoichiometry N,[2],3
B1,stoichiometry N,SEC,3
